# Measurements: US11807881B2, “Polypeptide, fusion polypeptide, and antibiotic against gram-negative bacteria comprising same” (priority 2020, dated 2023)
# B1: LNT101: endolysin derived from bacteriophage PBPA90, amino acid sequence SEQ ID NO: 1 (259 aa), purified with 6× His tag (protein)
# chain: MGTVLKRGDRGSAVEDLQMKLRVAGYAVSADGIFGGDTEKAVRDFQASKALVVDGKVGPATLAELAKSATVPAKWEAIPFPTANKSRSAAMPTLNAVGAMTGTDSRLLATFASIESAFDYTVKASTSSATGWFQFLDATWDDMIKAHGSKYGIPKDPTRALRKDPRANALMGAEFLKGNAAVLRPVINREPSDTDLYLAHFLGAGGAKKFLSADQKTLGEVLFPKPAKANPSIFSNKGVPRTLAEIYKLFEDKVSKHRA
# modifications: 6xHis tag; synthetic_Endolysin LNT101
# B2: LNT103: fusion polypeptide [Cecropin A]-[linker (GSGSGS)]-[endolysin LNT102]; SEQ ID NO: 15 (MAS, His tag) used in the tests (protein)
# chain: MASKWKLFKKIEKVGQNIRDGIIKAGPAVAVVGQATQIAKGSGSGSMGTVLKRGDRGSAVEDLQMKLNVAGYNLSADGIFGGDTEKAVRDVQAGAGLVVDGKVGPKTLYAIAKSATVPAKWEAIPFPTANKSRSAAMPTLNAVGAMTGVDSRLLATFASIESAFDYTVKAKTSSATGWFQFLDATWDDMIKAYGSKYGIPKDPTRALRKDPRANALMGAEFIKGNAAVLRPVINREPSDTDLYLAHFLGAGGAKKFLSADQKTLGEVLFPKPAKANPSIFSNKGVPRTLAEIYKLFEDKVSKHRALEHHHHHH
# modifications: synthetic_Fusion Polypeptide LNT103 with MAS, His tag, and extra sequence
# What was measured:
# [1] = tested on: Pseudomonas aeruginosa PA01; experiment: Galleria mellonella Pseudomonas aeruginosa infected model, viability; type: in vivo; conditions: PA01 50 CFU/larva
# Experimental: The Pseudomonas aeruginosa killing ability of the endolysin LNT101 was also confirmed in vivo. As an animal model for the in vivo effectivity evaluation, Galleria mellonella was used. The Galleria mellonella model was divided into the healthy group (non-infection group), Pseudomonas aeruginosa infected group (drug non-administration group), 2 LNT101 administration groups in which LNT101 was administered into the infection model, Colistin administration group in which colistin was administered into the Pseudomonas aeruginosa infected model, and combination administration group in which LNT101 and colistin were administered in combination into the Pseudomonas aeruginosa infected model to progress an experiment, and 10 of Galleria mellonella per each group was used.
# The Pseudomonas aeruginosa infected model was prepared by infecting Pseudomonas aeruginosa PA01 at the LD80 concentration, 50 CFU/larva, and LNT101 was administered at 0.6 μg/larva (3 mg/Kg) and 6 μg/larva (30 mg/Kg), respectively. Colistin was administered at 0.5 μg/larva (2.5 mg/Kg), and for administration in combination, Colistin at 0.5 μg/larva (2.5 mg/Kg) and LNT101 at 6 μg/larva (30 mg/Kg) were administered. […] In particular, in the LNT101 6 μg/larva (30 mg/Kg) administration group, the viability of 30% was confirmed.
# [2] = tested on: Acinetobacter baumannii (ATCC 19606); experiment: FIC index, combination of colistin and LNT103; type: cell-based; conditions: LNT103 in combination with colistin (polymyxin E)
# Experimental: The synergy effect of killing ability against gram negative bacterium by combination treatment of a polymyxin-based antibiotic having a mechanism acting on the cell membrane of bacterium and the fusion polypeptide LNT103 was confirmed. Specifically, colistin (polymyxin E) of […] was treated to a 96 well microplate column 1, and it was treated at a concentration where serial dilution was performed by ½ in columns 2-11. The LNT103 of 16 μg/ml was treated to row A, and it was treated at a concentration where serial dilution was performed by ½ in rows B-G. After that, Acinetobacter baumannii (ATCC 19606) was treated in an amount of 5×10^5 CFU/ml, total 100 μl in all wells. Then, it was cultured at 37° C. for 18 hours, and the FIC (Fractional Inhibitory Concentration) index value was calculated by the following equation: FIC index=FICA+FICB=(CA/MICA)+(CB/MICB)
# (CA and CB are each concentration of substances treated in combination (polymyxin E and LNT103), and MICA and MICB are MIC of single drug,
# FIC value: synergy effect <0.5; antagonism >4; additive 0.5-4)
# [3] = tested on: E. coli; experiment: MIC and MBC, broth microdilution in CAA media; type: cell-based
# Experimental: In addition, MIC (Minimal Inhibitory Concentration) and MBC (Minimal Bactericidal Concentration) of the fusion polypeptide LNT103 were measured. […] Specifically, the LNT103 was treated at a concentration of 64 μg/ml to a 96 well microplate row A, and the LNT103 was treated at a concentration where serial dilution was performed by ½ in rows B-G. To the row H, LNT103 was not treated. After that, the corresponding bacterium strain (type or QC, CCARM and clinical separation strain; See Tables 2-4) was treated in an amount of 5×10^5 CFU/ml, total 100 μl in all wells. Then, it was cultured at 37° C. for 18 hours. MIC was determined to be the lowest concentration at which no colonies were identified by confirming the number of the colonies in each well.
molecule,measurement,setting,value
B1,viability of Galleria mellonella,"[1]; LNT101 6 μg/larva (30 mg/Kg), 72 hours",30%
same,viability of Galleria mellonella,"[1]; LNT101 0.6 or 6 μg/larva, Colistin 0.5 μg/larva, observation for 72 hours",the viability was increased
B2,FIC index value,"[2]; 5×10^5 CFU/ml, 37° C. 18 hours",0.375
same,interaction of the two substances by FIC index,[2]; synergy effect <0.5,there was a synergy effect between the two substances
same,MBC,[3]; E. coli ATCC 8739,8 µg/mL
same,MIC,[3]; E. coli ATCC 8739,8 µg/mL
same,MBC,[3]; E. coli CCARM 1A746,8 µg/mL
same,MIC,[3]; E. coli CCARM 1A746,8 µg/mL
same,MBC,[3]; E. coli CCARM 1B684,8 µg/mL
same,MIC,[3]; E. coli CCARM 1B684,4 µg/mL
same,MBC,[3]; E. coli CCARM 1G448,4 µg/mL
same,MIC,[3]; E. coli CCARM 1G448,4 µg/mL
same,MBC,[3]; E. coli CCARM 1460,4 µg/mL
same,MIC,[3]; E. coli CCARM 1460,4 µg/mL
same,MBC,[3]; E. coli F340,16 µg/mL
same,MIC,[3]; E. coli F340,16 µg/mL
same,MBC,[3]; E. coli F481,8 µg/mL
same,MIC,[3]; E. coli F481,8 µg/mL
same,MBC,[3]; E. coli F485,8 µg/mL
same,MIC,[3]; E. coli F485,4 µg/mL
same,MBC,[3]; E. coli F524,16 µg/mL
same,MIC,[3]; E. coli F524,16 µg/mL
same,MBC,[3]; E. coli F716,32 µg/mL
same,MIC,[3]; E. coli F716,16 µg/mL
same,MBC,[3]; E. coli F852,32 µg/mL
same,MIC,[3]; E. coli F852,16 µg/mL
same,MBC,[3]; E. coli F859,32 µg/mL
same,MIC,[3]; E. coli F859,32 µg/mL
same,MBC,[3]; E. coli F862,4 µg/mL
same,MIC,[3]; E. coli F862,4 µg/mL
same,MBC,[3]; E. coli FORC81,4 µg/mL
same,MIC,[3]; E. coli FORC81,4 µg/mL
same,MBC,[3]; E. coli UPEC 3042,32 µg/mL
same,MIC,[3]; E. coli UPEC 3042,32 µg/mL
same,MBC,[3]; E. coli UPEC 3181,8 µg/mL
same,MIC,[3]; E. coli UPEC 3181,8 µg/mL
